Measured values: publication PMC2646901, “Characterisation of receptor binding by the chemotaxis inhibitory protein of Staphylococcus aureus and the effects of the host immune response” (Molecular Immunology, 2007)

B1: human C5a receptor (C5aR) (receptor)
chain: MDSFNYTTPDYGHYDDKDTLDLNTPVDKTSNTLRVPDILALVIFAVVFLVGVLGNALVVWVTAFEAKRTINAIWFLNLAVADFLSCLALPILFTSIVQHHHWPFGGAACSILPSLILLNMYASILLLATISADRFLLVFKPIWCQNFRGAGLAWIACAVAWGLALLLTIPSFLYRVVREEYFPPKVLCGVDYSHDKRRERAVAIVRLVLGFLWPLLTLTICYTFILLRTWSRRATRSTKTLKVVVAVVASFFIFWLPYQVTGIMMSFLEPSSPTFLLLKKLDSLCVSFAYINCCINPIIYVVAGQGFQGRLRKSLPSLLRNVLTEESVVRESKSFTRSTVDTMAQKTQAV
notes: human C5a receptor (C5aR), expressed on transfected RBL-2H3 or CHO cells; also called hC5aR; RBL-C5aR; source: RBL-2H3 or CHO cells, transfected by electroporation, on cells
B2: human C5aR peptide of the N-terminal extracellular region M1-D37 with additional -APAPAC on the C-terminus (hC5aR_(1–37)) (peptide)
peptide: MDSFNYTTPDYGHYDDKDTLDLNTPVDKTSNTLRVPDAPAPAC
notes: human C5a receptor, N-terminal extracellular region, residues M1-D37; also called human C5aR_(1–37) peptide; source: gift from Dr M. Barker, Division of Genomic Medicine, Sheffield
B3: recombinant human C5a protein (rh-C5a) (ligand)
chain: TLQKKIEEIAAKYKHSVVKKCCYDGACVNNDETCEQRAARISLGPRCIKAFTECCVVASQLRANISHKDMQLGR
notes: source: expressed and purified according to a previously described protocol (Paczkowski et al., 1999)

Experiments:
[1] = molecular target: T1, FITC-labelled recombinant CHIPS_(28–149) (Staphylococcus aureus N315 (MRSA), UniProt A6QIG7 28-149, FITC label (site not stated)); assay: flow cytometry on cells; kinetics: 300 nM FITC-CHIPS(28-149) added to C5aR-transfected RBL cells, dissociation started with 14 μM unlabelled CHIPS(28-149); Kd from kobs and koff, five experiments; conditions: one partner purified
T1 construct: three N-terminal residues, GlyAlaMet, left from the vector after TEV cleavage; The discussion once calls the labelled protein of the serum assay rCHIPS_(26–141); results and methods say 28-149; also called FITC-rCHIPS_(28–149); FITC-CHIPS_(28–149); source: E. coli BL21 (DE3), purified (glutathione sepharose 4B, TEV cleavage, Mono S), FITC-labelled; not shown: GST, N-terminal, cleaved

[2] = molecular target: T2, recombinant chemotaxis inhibitory protein of Staphylococcus aureus, residues 28-149 (rCHIPS_(28–149)) (Staphylococcus aureus N315 (MRSA), UniProt A6QIG7 28-149); assay: ITC; CHIPS(28-149) (0.2 mM) titrated with the peptides; non-linear regression; data not shown; conditions: both partners purified
T2 construct: three N-terminal residues, GlyAlaMet, left from the vector after TEV cleavage; Uniformly 15N-labelled (isotope only) in the NMR titrations; unlabelled in ITC and in the cell assays; also called unlabelled CHIPS; ^15N-labelled CHIPS_(28–149); source: E. coli BL21 (DE3), purified (glutathione sepharose 4B, TEV cleavage, Mono S); not shown: GST, N-terminal, cleaved

[3] = molecular target: T2, recombinant chemotaxis inhibitory …; assay: NMR titration; 1H-15N HSQC of 0.7 mM 15N-CHIPS(28-149), unlabelled lyophilized ligand added to ligand:CHIPS ratios 0, 1:2, 3:4, 1:1, 5:4; 25 °C, 100 mM phosphate pH 7.0, 200 mM NaCl, 1 mM DTT, 0.5 mM EDTA; Kd from fast-exchange shift curves, averaged over residues; conditions: both partners purified
[4] = molecular target: B1; assay: flow cytometry on cells; competition: RBL cells transfected with human C5aR pre-treated with unlabelled CHIPS or human C5a, then 210 nM FITC-rCHIPS(28-149); cell-associated fluorescence; conditions: one partner purified

B1
Kd [1]: 0.00722 ± 0.00666 µM

B2
Ka [2]: 25000 M⁻¹
Kd [2]: ~40 µM
stoichiometry N [2]: 1.4 ± 0.8
Kd [3]: 8.25 µM

B3
IC50 [4]: ~0.25 µM
